From article PMC9732051, “Divergent self-association properties of paralogous proteins TRIM2 and TRIM3 regulate their E3 ligase activity” (Nature Communications, 2022)

Assays:
[1] = target: 15N-labelled UBE2D3 (C85S) (UniProt P61077 1-147, mutation of the catalytic cysteine (C85) to serine); experiment: NMR; residue K101
Target sequence in this assay (P61077 whole entry C85S): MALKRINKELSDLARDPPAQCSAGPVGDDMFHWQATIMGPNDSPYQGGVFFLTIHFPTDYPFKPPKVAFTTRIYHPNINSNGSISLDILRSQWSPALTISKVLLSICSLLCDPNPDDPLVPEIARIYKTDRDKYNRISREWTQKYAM

[2] = target: the molecule itself; experiment: SEC-MALLS; Superdex 75 or 200 10/300 GL Increase; 20 mM HEPES pH 7.5, 150 mM NaCl, 0.5 mM TCEP, 3 mM NaN3; 25 °C; 100 μl samples at multiple concentrations (5, 3, 2 and 1 mg/ml in Fig. 1b)
[3] = target: T1, 15N-labelled UBE2D3 (C85S) (UniProt P61077 1-147, mutation of the catalytic cysteine (C85) to serine); experiment: NMR titration; 1H-15N HSQC of 200 µM 15N-UBE2D3 (C85S) titrated with unlabelled RING (0 to 2 molar equivalents); 298 K; 25 mM Na-phosphate pH 7.0, 150 mM NaCl; Kd from fits of chemical shift changes; conditions: both partners purified
T1 construct: UBE2D3 with the catalytic cysteine (C85) mutated to serine; Uniformly 15N-enriched; source: bacteria grown in M9 minimal medium with 15N-ammonium chloride
T1 sequence (P61077 whole entry C85S): as above

| Kd [3] | Binder | stoichiometry N [2] | further results |
| --- | --- | --- | --- |
| ~590 µM | human TRIM2 RING (2-95) (domain or fragment, UniProt Q9C040 2-95, looked up, human TRIM2, RING construct, residues 2-95; likely on this pET49b construct too; also called T2R; RING1; source: E. coli BL21 (DE3), purified (Ni-NTA, His6 cleaved by HRV 3C, SEC); not shown: His6, N-terminal, cleaved) ASEGTNIPSPVVRQIDKQFLICSICLERYKNPKVLPCLHTFCERCLQNYIPAHSLTLSCPVCRQTSILPEKGVAALQNNFFITNLMDVLQRTPG | 2 | Kd [1]: 643 µM |
|  | chimera of the TRIM2 N- and C-terminal α-helices (2-16/84-95) and the TRIM3 core RING (16-82) (other, human, UniProt Q9C040 2-16, looked up, human TRIM2, N-terminal α-helix, residues 2-16; human TRIM3, core RING domain, residues 16-82; human TRIM2, C-terminal α-helix, residues 84-95; also called T2αs-T3Rcore; T2Rαs-T3Rcore; source: E. coli BL21 (DE3), purified (Ni-NTA, His6 cleaved by HRV 3C, SEC); not shown: His6, N-terminal, cleaved) ASEGTNIPSPVVRQIDKQFLVCSICLDRYQCPKVLPCLHTFCERCLQNYIPAQSLTLSCPVCRQTSILPEQGVSALQNNFFITNLMDVLQRTPG |  | binding result [2]: binds |
|  | human TRIM2 RING-B-box2 (2-156) (domain or fragment, UniProt Q9C040 2-156, looked up, human TRIM2, RB2 construct, residues 2-156; also called TRIM2 RB2; source: E. coli BL21 (DE3), purified (Ni-NTA, His6 cleaved by HRV 3C, SEC); not shown: His6, N-terminal, cleaved) ASEGTNIPSPVVRQIDKQFLICSICLERYKNPKVLPCLHTFCERCLQNYIPAHSLTLSCPVCRQTSILPEKGVAALQNNFFITNLMDVLQRTPGSNAEESSILETVTAVAAGKPLSCPNHDGNVMEFYCQSCETAMCRECTEGEHAEHPTVPLKD | 2 |  |
| ~300 µM | human TRIM3 RING (2-95) (domain or fragment, tripeptide Gly-Pro-Gly left at the N-terminus by 3C protease cleavage; human TRIM3, RING construct, residues 2-95; also called T3R; source: E. coli BL21 (DE3), purified (Ni-NTA, His6 cleaved by HRV 3C, SEC); not shown: His6, N-terminal, cleaved) GPGAKREDSPGPEVQPMDKQFLVCSICLDRYQCPKVLPCLHTFCERCLQNYIPAQSLTLSCPVCRQTSILPEQGVSALQNNFFISSLMEAMQQAPDG |  |  |
|  | human TRIM3 tripartite motif RBCC (2-313) (domain or fragment, UniProt O75382 2-313, looked up, human TRIM3, RBCC construct, residues 2-313; also called TRIM3 RBCC; source: E. coli BL21 (DE3), purified (Ni-NTA, His6 cleaved by HRV 3C, SEC); not shown: His6, N-terminal, cleaved) AKREDSPGPEVQPMDKQFLVCSICLDRYQCPKVLPCLHTFCERCLQNYIPAQSLTLSCPVCRQTSILPEQGVSALQNNFFISSLMEAMQQAPDGAHDPEDPHPLSVVAGRPLSCPNHEGKTMEFYCEACETAMCGECRAGEHREHGTVLLRDVVEQHKAALQRQLEAVRGRLPQLSAAIALVGGISQQLQERKAEALAQISAAFEDLEQALQQRKQALVSDLETICGAKQKVLQSQLDTLRQGQEHIGSSCSFAEQALRLGSAPEVLLVRKHMRERLAALAAQAFPERPHENAQLELVLEVDGLRRSVLNLG | 2 |  |
|  | human TRIM2 tripartite motif RBCC (2-316) (domain or fragment, UniProt Q9C040 2-316, looked up, human TRIM2, RBCC construct, residues 2-316; also called TRIM2 RBCC; source: E. coli BL21 (DE3), purified (Ni-NTA, His6 cleaved by HRV 3C, SEC); not shown: His6, N-terminal, cleaved) ASEGTNIPSPVVRQIDKQFLICSICLERYKNPKVLPCLHTFCERCLQNYIPAHSLTLSCPVCRQTSILPEKGVAALQNNFFITNLMDVLQRTPGSNAEESSILETVTAVAAGKPLSCPNHDGNVMEFYCQSCETAMCRECTEGEHAEHPTVPLKDVVEQHKASLQVQLDAVNKRLPEIDSALQFISEIIHQLTNQKASIVDDIHSTFDELQKTLNVRKSVLLMELEVNYGLKHKVLQSQLDTLLQGQESIKSCSNFTAQALNHGTETEVLLVKKQMSEKLNELADQDFPLHPRENDQLDFIVETEGLKKSIHNLG | 4 |  |
